Data set [1] has as its target CH5-1 (nH5 heat-cycled three times 25 to 85 C), H5 of A/Vietnam/1203/04.
Data set [2] concerns the target cross-beta factor VIII form 12: Helixate FVIII incubated for 1 week at 37 C, stored at 4 C, P00451.
For data set [3], the target named is cFVIII-5: Helixate FVIII kept at 95 C for 5 minutes.
Data set [4] has as its target CH5-4 (nH5 incubated with 100 mM glucose-6-phosphate for 67 h at 80 C), H5 of A/Vietnam/1203/04.
In data set [5] the target is T1, dOVA-1: ovalbumin 5.2 mg/ml in HBS, acidified with HCl, 40 minutes at 37 C, neutralized, P01012.
T1 chain: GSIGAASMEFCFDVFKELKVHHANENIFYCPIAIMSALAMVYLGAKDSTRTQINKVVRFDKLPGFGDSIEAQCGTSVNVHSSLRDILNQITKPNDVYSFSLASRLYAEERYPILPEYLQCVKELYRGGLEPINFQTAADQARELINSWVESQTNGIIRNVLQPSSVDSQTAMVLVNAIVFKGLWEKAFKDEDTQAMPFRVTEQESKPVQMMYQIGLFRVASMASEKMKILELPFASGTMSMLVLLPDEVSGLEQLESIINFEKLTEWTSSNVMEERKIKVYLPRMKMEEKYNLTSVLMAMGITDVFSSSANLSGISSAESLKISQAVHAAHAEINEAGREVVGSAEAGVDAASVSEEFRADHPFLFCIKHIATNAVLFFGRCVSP

The target of data set [6] is T2, dOVA-3: ovalbumin 1 mg/ml in PBS, about 16 h at 75 C, P01012.
T2 chain: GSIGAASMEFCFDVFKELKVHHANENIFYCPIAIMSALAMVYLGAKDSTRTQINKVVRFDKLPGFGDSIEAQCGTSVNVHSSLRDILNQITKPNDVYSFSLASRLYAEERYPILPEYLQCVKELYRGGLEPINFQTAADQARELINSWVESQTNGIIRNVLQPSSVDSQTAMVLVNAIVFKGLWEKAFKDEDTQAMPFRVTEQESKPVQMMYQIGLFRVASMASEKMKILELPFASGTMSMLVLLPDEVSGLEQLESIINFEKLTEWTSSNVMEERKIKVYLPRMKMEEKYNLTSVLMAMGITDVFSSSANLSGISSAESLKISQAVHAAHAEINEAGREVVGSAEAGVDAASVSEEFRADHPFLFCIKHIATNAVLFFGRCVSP

Data set [7] addresses CH5-2 (nH5 heat-cycled at pH 2, back to pH 7), H5 of A/Vietnam/1203/04.
Data set [8] has as its target non-treated H5 (nH5) of H5N1 strain A/Vietnam/1203/04 (Protein Sciences).
In data set [9] the target is T3, dOVA-2: ovalbumin 1 mg/ml in PBS, five heat cycles 30 to 85 C, P01012.
T3 chain: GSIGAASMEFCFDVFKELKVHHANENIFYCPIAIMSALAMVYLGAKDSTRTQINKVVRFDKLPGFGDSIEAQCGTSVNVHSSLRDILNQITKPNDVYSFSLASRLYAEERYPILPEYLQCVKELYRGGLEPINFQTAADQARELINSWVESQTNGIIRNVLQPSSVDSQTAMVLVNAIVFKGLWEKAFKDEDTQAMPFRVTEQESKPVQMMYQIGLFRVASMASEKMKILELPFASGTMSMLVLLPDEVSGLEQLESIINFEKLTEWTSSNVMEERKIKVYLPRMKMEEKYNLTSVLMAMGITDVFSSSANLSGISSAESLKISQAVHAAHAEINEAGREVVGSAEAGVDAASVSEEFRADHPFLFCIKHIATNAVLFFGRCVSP

In data set [10] the target is T4, cross-beta nOVA: ovalbumin (chicken egg-white albumin) dissolved at 1 mg/ml in PBS, P01012.
T4 chain: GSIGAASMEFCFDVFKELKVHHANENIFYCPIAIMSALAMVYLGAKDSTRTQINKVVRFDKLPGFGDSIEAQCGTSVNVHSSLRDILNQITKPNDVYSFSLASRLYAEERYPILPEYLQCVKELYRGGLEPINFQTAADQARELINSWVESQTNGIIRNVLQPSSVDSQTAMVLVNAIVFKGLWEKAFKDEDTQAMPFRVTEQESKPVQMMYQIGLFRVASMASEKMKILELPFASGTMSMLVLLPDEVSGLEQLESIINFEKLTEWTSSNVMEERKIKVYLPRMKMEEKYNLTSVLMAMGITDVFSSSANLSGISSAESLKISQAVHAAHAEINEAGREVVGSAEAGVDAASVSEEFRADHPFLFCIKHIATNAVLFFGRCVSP

Data set [11] addresses CH5-3 (nH5 heat-cycled at pH 12, back to pH 7), H5 of A/Vietnam/1203/04.
For data set [12], the target named is cross-beta FVIII-1 (cFVIII-1): Helixate FVIII kept at 4 C for 20 hours, stored at -80 C.
Target sequence (chain, as listed by the source): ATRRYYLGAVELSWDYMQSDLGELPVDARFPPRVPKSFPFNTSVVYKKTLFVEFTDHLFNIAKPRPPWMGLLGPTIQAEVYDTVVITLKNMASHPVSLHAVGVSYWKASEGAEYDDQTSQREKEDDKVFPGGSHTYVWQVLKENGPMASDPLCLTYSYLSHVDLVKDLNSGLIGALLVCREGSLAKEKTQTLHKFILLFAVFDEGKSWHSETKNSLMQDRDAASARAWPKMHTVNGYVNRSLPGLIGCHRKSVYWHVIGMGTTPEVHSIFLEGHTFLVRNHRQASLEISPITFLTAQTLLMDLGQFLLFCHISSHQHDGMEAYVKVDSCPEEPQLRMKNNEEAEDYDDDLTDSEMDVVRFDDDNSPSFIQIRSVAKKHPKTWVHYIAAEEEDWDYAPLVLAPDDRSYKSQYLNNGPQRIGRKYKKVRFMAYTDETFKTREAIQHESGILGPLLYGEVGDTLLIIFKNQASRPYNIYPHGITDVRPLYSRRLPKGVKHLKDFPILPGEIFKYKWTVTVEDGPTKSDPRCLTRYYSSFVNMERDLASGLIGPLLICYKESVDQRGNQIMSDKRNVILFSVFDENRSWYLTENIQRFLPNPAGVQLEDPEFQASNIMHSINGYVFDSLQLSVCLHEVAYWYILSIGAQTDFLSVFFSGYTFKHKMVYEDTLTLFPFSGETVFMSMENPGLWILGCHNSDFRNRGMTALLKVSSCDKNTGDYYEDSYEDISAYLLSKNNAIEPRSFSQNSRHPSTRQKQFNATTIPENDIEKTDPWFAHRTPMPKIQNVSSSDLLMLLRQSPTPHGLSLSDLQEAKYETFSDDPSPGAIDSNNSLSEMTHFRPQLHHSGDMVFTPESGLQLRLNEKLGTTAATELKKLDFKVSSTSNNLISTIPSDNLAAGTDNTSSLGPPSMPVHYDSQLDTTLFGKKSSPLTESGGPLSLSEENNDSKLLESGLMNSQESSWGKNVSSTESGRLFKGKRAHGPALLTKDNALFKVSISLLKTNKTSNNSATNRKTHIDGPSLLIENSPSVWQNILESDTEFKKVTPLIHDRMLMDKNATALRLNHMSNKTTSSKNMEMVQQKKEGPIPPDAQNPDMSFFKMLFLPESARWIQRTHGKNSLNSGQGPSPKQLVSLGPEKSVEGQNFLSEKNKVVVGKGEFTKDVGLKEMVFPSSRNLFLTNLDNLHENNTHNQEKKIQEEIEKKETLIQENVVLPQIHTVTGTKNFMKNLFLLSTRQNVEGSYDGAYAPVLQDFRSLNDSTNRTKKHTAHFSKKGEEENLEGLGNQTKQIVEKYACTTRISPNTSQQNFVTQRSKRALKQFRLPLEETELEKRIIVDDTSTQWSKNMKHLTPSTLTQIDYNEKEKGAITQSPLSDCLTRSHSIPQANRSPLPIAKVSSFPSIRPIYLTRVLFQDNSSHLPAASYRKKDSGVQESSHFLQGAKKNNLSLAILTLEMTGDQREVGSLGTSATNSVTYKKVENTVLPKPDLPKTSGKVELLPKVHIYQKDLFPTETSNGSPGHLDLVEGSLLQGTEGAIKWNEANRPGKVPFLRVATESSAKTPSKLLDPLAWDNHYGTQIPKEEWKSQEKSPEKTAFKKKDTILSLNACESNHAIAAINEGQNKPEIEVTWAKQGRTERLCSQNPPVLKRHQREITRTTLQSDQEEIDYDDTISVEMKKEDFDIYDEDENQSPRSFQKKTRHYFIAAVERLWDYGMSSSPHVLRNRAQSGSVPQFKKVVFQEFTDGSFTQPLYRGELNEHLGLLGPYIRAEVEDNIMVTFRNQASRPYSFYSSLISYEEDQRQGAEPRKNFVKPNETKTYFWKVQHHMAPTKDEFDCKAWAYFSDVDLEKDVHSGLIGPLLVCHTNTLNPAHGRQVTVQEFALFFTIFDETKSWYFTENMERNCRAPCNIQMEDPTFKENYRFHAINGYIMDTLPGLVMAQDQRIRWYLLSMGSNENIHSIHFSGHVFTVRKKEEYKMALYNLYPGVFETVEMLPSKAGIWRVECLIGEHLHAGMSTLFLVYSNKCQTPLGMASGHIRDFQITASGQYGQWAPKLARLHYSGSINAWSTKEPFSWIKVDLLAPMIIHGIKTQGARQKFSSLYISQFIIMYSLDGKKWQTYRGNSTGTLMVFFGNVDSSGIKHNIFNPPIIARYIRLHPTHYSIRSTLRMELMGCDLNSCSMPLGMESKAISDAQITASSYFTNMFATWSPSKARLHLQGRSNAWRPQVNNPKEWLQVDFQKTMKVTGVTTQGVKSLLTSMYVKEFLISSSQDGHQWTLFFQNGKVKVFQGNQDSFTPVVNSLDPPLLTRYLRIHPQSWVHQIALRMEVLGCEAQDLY

Consider 1 protein from US20090142377.

cFVIII-5: Helixate FVIII kept at 95 C for 5 minutes, sequence (chain, as listed by the source): as above
cross-beta factor VIII form 12: Helixate FVIII incubated for 1 week at 37 C, stored at 4 C, P00451, sequence (P00451 whole entry, looked up): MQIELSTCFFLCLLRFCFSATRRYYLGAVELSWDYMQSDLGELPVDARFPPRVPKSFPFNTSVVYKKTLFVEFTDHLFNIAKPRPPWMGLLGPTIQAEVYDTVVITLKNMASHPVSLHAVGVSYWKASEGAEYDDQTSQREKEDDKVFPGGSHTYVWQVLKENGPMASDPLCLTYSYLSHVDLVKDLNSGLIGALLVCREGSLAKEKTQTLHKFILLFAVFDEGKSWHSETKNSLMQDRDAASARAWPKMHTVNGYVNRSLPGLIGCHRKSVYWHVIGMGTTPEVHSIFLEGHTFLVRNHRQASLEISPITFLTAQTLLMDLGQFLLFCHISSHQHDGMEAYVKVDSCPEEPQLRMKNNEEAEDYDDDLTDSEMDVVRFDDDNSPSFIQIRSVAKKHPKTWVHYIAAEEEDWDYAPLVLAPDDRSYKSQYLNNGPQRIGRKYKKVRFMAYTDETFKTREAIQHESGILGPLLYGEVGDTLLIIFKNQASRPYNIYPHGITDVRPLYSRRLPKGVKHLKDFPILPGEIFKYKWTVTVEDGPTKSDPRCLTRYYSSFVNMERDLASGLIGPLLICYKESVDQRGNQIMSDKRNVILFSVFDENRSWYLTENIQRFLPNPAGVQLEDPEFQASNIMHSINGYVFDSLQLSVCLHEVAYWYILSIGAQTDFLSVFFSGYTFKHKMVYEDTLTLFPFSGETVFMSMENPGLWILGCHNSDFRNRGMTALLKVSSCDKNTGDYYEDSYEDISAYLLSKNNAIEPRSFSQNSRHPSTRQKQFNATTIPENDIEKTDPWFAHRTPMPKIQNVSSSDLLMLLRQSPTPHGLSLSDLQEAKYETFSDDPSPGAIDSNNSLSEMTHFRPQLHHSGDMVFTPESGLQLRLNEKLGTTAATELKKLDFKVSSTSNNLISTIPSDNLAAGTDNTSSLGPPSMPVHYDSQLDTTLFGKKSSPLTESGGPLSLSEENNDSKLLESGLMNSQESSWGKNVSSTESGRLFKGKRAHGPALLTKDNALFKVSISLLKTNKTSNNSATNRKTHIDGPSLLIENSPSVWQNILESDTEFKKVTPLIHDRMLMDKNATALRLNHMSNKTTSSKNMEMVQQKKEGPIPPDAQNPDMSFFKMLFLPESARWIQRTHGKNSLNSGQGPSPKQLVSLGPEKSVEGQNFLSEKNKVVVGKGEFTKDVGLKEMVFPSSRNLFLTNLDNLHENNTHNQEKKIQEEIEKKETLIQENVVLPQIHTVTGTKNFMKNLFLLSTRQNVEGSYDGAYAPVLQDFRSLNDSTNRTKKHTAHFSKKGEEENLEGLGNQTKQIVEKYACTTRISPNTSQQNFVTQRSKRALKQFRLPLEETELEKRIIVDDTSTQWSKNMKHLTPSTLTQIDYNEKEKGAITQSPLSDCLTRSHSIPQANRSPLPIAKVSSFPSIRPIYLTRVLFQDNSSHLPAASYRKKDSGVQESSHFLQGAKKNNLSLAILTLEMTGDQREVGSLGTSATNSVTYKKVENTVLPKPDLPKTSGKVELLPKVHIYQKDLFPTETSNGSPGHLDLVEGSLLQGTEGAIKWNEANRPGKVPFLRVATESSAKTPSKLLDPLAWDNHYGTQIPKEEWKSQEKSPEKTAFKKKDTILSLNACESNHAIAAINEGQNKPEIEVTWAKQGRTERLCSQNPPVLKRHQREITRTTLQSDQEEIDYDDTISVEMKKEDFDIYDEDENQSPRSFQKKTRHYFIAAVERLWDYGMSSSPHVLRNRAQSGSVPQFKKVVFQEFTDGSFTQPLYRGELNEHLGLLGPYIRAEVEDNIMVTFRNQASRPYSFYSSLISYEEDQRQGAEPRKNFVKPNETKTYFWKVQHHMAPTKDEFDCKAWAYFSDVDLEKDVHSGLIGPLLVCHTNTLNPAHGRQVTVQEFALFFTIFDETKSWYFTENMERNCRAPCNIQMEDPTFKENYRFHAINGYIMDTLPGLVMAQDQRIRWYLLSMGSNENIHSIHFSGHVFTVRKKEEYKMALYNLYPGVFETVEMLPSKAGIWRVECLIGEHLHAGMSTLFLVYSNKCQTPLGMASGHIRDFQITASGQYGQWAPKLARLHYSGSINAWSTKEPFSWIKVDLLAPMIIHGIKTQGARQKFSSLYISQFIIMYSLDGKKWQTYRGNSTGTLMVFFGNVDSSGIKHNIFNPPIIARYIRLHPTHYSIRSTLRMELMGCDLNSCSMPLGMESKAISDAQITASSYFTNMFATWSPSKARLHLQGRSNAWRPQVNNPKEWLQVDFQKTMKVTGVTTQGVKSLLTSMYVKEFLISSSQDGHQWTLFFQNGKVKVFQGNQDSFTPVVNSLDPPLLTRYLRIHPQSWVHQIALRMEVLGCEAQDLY

B1: tissue type plasminogen activator (tPA; Actilyse, Boehringer-Ingelheim) (protein)
chain: SYQVICRDEKTQMIYQQHQSWLRPVLRSNRVEYCWCNSGRAQCHSVPVKSCSEPRCFNGGTCQQALYFSDFVCQCPEGFAGKCCEIDTRATCYEDQGISYRGTWSTAESGAECTNWNSSALAQKPYSGRRPDAIRLGLGNHNYCRNPDRDSKPWCYVFKAGKYSSEFCSTPACSEGNSDCYFGNGSAYRGTHSLTESGASCLPWNSMILIGKVYTAQNPSAQALGLGKHNYCRNPDGDAKPWCHVLKNRRLTWEYCDVPSCSTCGLRQYSQPQFRIKGGLFADIASHPWQAAIFAKHRRSPGERFLCGGILISSCWILSAAHCFQERFPPHHLTVILGRTYRVVPGEEEQKFEVEKYIVHKEFDDDTYDNDIALLQLKSDSSRCAQESSVVRTVCLPPADLQLPDWTECELSGYGKHEALSPFYSERLKEAHVRLYPSSRCTSQHLLNRTVTDNMLCAGDTRSGGPQANLHDACQGDSGGPLVCLNDGRMTLVGIISWGLGCGQKDVPGVYTKVTNYLDWIRDNMRP
Take B1: the “tPA mediated plasminogen activation assay” value is given as “cH5-1 (50% of standard)” in [1]; “cH5-4 (37% of standard)” in data set [4]; “cH5-2 (150% of standard)” in data set [7]; “nH5 (140% of standard)” in [8]; “cH5-3 (200% of standard)” in data set [11]. Moreover, the “tPA/Plg activation assay, compared to a misfolded ovalbumin standard” value in data set [2] was “cross-beta fVIII forms 1, 12 and 5 is approximately 50, 75 and 125%”; in data set [3] it was “cross-beta fVIII forms 1, 12 and 5 is approximately 50, 75 and 125%”; in data set [12], “cross-beta fVIII forms 1, 12 and 5 is approximately 50, 75 and 125%”. Further, the tPA activation potency, activation at 10 ug/mL (% of reference) was 97.4 in data set [5], 60.9 in [6], 107 in [9] and 48.8 in data set [10]. The tPA activation potency, activation at 25 ug/mL (% of reference) is 136 in data set [5], 79 in data set [6], 107 in [9] and 48.1 in data set [10]. Besides, in data set [9], the tPA activation potency, reference dOVA-2 at 80 ug/mL (column 10 ug/mL) (% of reference) came to 100. In [9], this protein displayed a tPA activation potency, reference dOVA-2 at 80 ug/mL (column 25 ug/mL) (% of reference) of 100.
